Assay results: US20250197490A1 (HBM ALPHA THERAPEUTICS, published 2025)
Residue numbers refer to the chain shown, from its start. Like-named read-outs stand apart in the source and are kept apart here. Blank lines part the entries; values can stand above or below the binder they belong to.

How the values were obtained:
[1] = target: T1, biotinylated CRH (human and mouse, UniProt P01143 145-185 (rat entry), not fully specified; biotin; which end is not stated for the result (NT-biotin and CT-biotin forms were used)); assay: ELISA, CRH (NT biotin)
T1 construct: also called biotin-CRH; CRH (NT biotin)
T1 peptide: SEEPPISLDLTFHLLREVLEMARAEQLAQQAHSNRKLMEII

[2] = target: T1, biotinylated CRH; assay: ELISA, CRH (NT biotin)
Protocol: Streptavidin (Thermo, Cat: 21125) was diluted in PBS to a concentration of 2 μg/ml. 100 μl of diluted streptavidin was added per well to ELISA microplates, and the plates were incubated overnight at 4° C. […] Subsequently, plates were washed and incubated with HRP-conjugated goat anti-human IgG (H+L) antibody (Jackson, Cat: 109-035-088) at 37° C. for 1 hour. 100 μL of 3,3′,5,5′-tetramethylbenzidine (TMB) substrate (Biopanda, Cat: TMB-S-003) was added, and the plates were incubated at room temperature for 15 minutes. 100 μL of ELISA stopping solution (Solarbio, Cat #: C1058) was added to terminate the reaction, and the optical density at 450 nm (OD450 nm) was determined by an ELISA plate reader (Molecular Devices, Spectra max 384 plus).
These potential PTMs were mutated individually either in HCDR2 alone, in LCDR1 alone, or in various combinations of mutations, as detailed in Table 3. […] Most ΔPTM variants retained functional activities.

[3] = target: T2, corticotropin-releasing hormone (CRH) peptide (human and mouse, UniProt P01143 145-185 (rat entry), not fully specified); assay: cell-based or functional assay
T2 peptide: T1 peptide

B1: PR302333 (antibody, human IgG1, kappa, V domains shown)
VH: QIQLVQSGPELKKPGETVKISCKASGYTFTNFGMNWVKQAPGKVLKWMGWINTYTGEPIYADDFKGRFAFSLETSASAAYLQINNLKNEDTATYFCSRSTMITTGGVFAYWGQGTLVTVSA
VL: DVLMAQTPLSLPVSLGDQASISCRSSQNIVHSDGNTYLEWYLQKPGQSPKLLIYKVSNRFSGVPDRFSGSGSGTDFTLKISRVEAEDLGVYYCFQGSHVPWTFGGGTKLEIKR
binding result [1]: binds

B3: PR005657 (antibody, human IgG1, kappa, V domains shown)
VH: EVQLVESGGVLVQPGGSLRLSCAASGFTFSSYWMTWVRQAPGKGLEWVANIKQDASEKYYVDSVKGRFTISRDNAKNSLFLQMNSLRAEDTAVYYCARTLIFDYWGQGTLVTVSS
VL: DIVMTQSPLSLPVTPGEPASISCRSSQSLLHSTGYNSLEWYLQKPGQSPQLLIYLGSNRASGVPDRFSGSGSGTDFTLKISRVEAEDVGIYYCMQTLQTPITFGQGTRLEIKR
EC50 (read off the curve) [2]: ~0.03 nM

B4: PR006153 (antibody, human IgG1, kappa, V domains shown)
VH: B3 VH with A55S
VL: B3 VL with N36S
binding result [2]: binds

B5: PR006152 (antibody, human IgG1, kappa, V domains shown)
VH: B3 VH with A55S
VL: B3 VL with S37P
binding result [2]: binds

B10: PR006148 (antibody, human IgG1, kappa, V domains shown)
VH: B3 VH
VL: B3 VL with S37P
binding result [2]: binds

B11: PR006147 (antibody, human IgG1, kappa, V domains shown)
VH: B3 VH
VL: B3 VL with N36H
binding result [2]: binds

B12: PR006151 (antibody, human IgG1, kappa, V domains shown)
VH: B3 VH with A55S
VL: B3 VL with N36H
binding result [2]: binds

B14: PR006142 (antibody, human IgG1, kappa, V domains shown)
VH: B3 VH with D54E, A55G
VL: B3 VL with N36D
binding result [2]: binds

B16: PR302324 (antibody, human IgG1, kappa, V domains shown)
VH: EVQLQQSGPELVKPGASVKMSCKASGYTFTDYFMKWVKQSHGGSLEWIGVISPNNGDTFYNQKFKGKATLTVDKSSSTAFMQLNSLTSEDSAVYSCARGTDRALFAYWGQGTLVTVSA
VL: DVLMTQTPLSLPVSLGDQASISCRSSQSIVHSDGNTYLEWYLQRPGQSPKLLIYKVSNRFSGVPDRFSGSGSGTDFTLKISRVGAEDLGVYYCFQGSHIPWTFGGGTKLEVKR
binding result [1]: binds

B18: PR302052 (antibody, human IgG1, kappa, V domains shown)
VH: EMQLVESGGGLVQPGGSLKLSCAASGFTFSNYWMNWVRQASGKGLEWVAEIRLKSNNYATHYAESVKGRFTISRDDSKSTVYLQMNSLKTEDTAVYYCTVGTLVYWGQGTLVTVSS
VL: EIVLTQSPATLSLSPGERATLSCRASQSVSTSTYNYMHWFQQKPGQAPRLLIKFASNLESGIPARFSGSGSGTDFTLTISSLEPEDTAVYYCQHSWEIPYTFGQGTKLEIKR
unlabelled nM value (Table 5 matrix; likely hCRHR1-Luc IC50 as in Tables 6-8) [3]: 2.05 nM

B19: PR302041 (antibody, human IgG1, kappa, V domains shown)
VH: B18 VH with K19R, S41P, T80S
VL: DIQLTQSPSSLSASVGDRVTITCRASQSVSTSTYNYMHWFQQKPGKAPKLLIKFASNLESGVPSRFSGSGSGTDFTLTISSLQPEDTATYYCQHSWEIPYTFGQGTKLEIKR
unlabelled nM value (Table 5 matrix; likely hCRHR1-Luc IC50 as in Tables 6-8) [3]: 2.54 nM

B20: PR302055 (antibody, human IgG1, kappa, V domains shown)
VH: B18 VH
VL: B19 VL
unlabelled nM value (Table 5 matrix; likely hCRHR1-Luc IC50 as in Tables 6-8) [3]: 1.35 nM

B22: PR302048 (antibody, human IgG1, kappa, V domains shown)
VH: B18 VH with M2V, A49G, S79N, V81A, V100R
VL: B19 VL
unlabelled nM value (Table 5 matrix; likely hCRHR1-Luc IC50 as in Tables 6-8) [3]: 6.66 nM

B23: PR302034 (antibody, human IgG1, kappa, V domains shown)
VH: B18 VH with M2V, K19R, S41P, A49G, S79N, T80S, V81L
VL: B19 VL
unlabelled nM value (Table 5 matrix; likely hCRHR1-Luc IC50 as in Tables 6-8) [3]: 6.87 nM

B25: PR302328 (antibody, human IgG1, kappa, V domains shown)
VH: EVKLVESGGGLVKPGGSLKLSCAASGFTFSSYAMSWVRQTPEKRLEWVASIRSGGTTYYPDSVKGRFTISRDNARNILYLQMSSLRSEDTAIYYCTRGIDWGQGTLVTVSA
VL: NIVMTQTPKFLLVSAGDRVTITCKASQSVNNDVAWYQQKPGQSPKLLIYYASNRYTGVPDRFTGSGYGTDFTFTISTVQAEDLAVYFCQQDYSSWTFGGGTKLEIKR
binding result [1]: binds

B27: PR302339 (antibody, human IgG1, kappa, V domains shown)
VH: B25 VH with M34L
VL: B25 VL
binding result [1]: binds

B28: PR302335 (antibody, human IgG1, kappa, V domains shown)
VH: DVQLVESGGGLVQPGGSRKLSCAASGFTFSSFGMHWVRQAPEKGLEWVAYISSGSTIFYYADTVKGRFTISRDNPKNTLFLQMTSLRSEDTAMYYCARDITTATFAFWGQGTLVTVSA
VL: DVVLTQTPLSLPVSLGDQVSISCRSSQNLLHNNGNTYLHWYLQKPGQSPRLLIYKVSNRFSGVPDRFSGSGSGTDFTLKITRVEAEDLGVYFCSQSTHIPWTFGGGTKLEIKR
binding result [1]: binds

Second part, the binder after the results:

binding result [1]: binds
B2: PR302332 (antibody, human IgG1, kappa, V domains shown)
VH: B1 VH with N35H, D62A, A78T
VL: B16 VL with T5A, R44K, G84E, I99V, V111I

EC50 (read off the curve) [2]: ~0.03 nM
B6: PR005662 (antibody, human IgG1, kappa, V domains shown)
VH: B3 VH
VL: B3 VL with N36Q

binding result [2]: binds
B7: PR006150 (antibody, human IgG1, kappa, V domains shown)
VH: B3 VH with A55S
VL: B3 VL with N36D

binding result [2]: binds
B8: PR006149 (antibody, human IgG1, kappa, V domains shown)
VH: B3 VH
VL: B3 VL with N36S

EC50 (read off the curve) [2]: ~0.03 nM
B9: PR005658 (antibody, human IgG1, kappa, V domains shown)
VH: B3 VH with A55G
VL: B3 VL with N36Q

binding result [2]: binds
B13: PR006144 (antibody, human IgG1, kappa, V domains shown)
VH: B3 VH with D54E, A55G
VL: B3 VL with S37P

binding result [2]: binds
B15: PR006146 (antibody, human IgG1, kappa, V domains shown)
VH: B3 VH
VL: B3 VL with N36D

binding result [1]: binds
B17: PR302312 (antibody, human IgG1, kappa, V domains shown)
VH: B16 VH with V37M, G43K, S52N, K63N, F80Y, S95Y, A97T, D101A
VL: B16 VL with I99V

unlabelled nM value (Table 5 matrix; likely hCRHR1-Luc IC50 as in Tables 6-8) [3]: 2.49 nM
B21: PR302066 (antibody, human IgG1, kappa, V domains shown)
VH: B18 VH with Q13K, K19R, S41P
VL: B18 VL

unlabelled nM value (Table 5 matrix; likely hCRHR1-Luc IC50 as in Tables 6-8) [3]: 1.54 nM
B24: PR302069 (antibody, human IgG1, kappa, V domains shown)
VH: B18 VH with Q13K, K19R, S41P
VL: B19 VL

binding result [1]: binds
B26: PR302331 (antibody, human IgG1, kappa, V domains shown)
VH: B25 VH with T40S
VL: B25 VL with T22A
